# Experimental data as given in publication PMC10379010, “Short Peptides of Innate Immunity Protein Tag7 (PGLYRP1) Selectively Induce Inhibition or Activation of Tumor Cell Death via TNF Receptor” (International Journal of Molecular Sciences, 2023).
# Biological target: Hsp70 (recombinant) (UniProt P0DMV8)
# Test: MST; sTNFR1 or Hsp70 labeled with Alexa Fluor 633 or 488 (200 nM), 20 min in the dark at room temperature with 16 concentrations of each compound; Monolith NT 115, IR laser power 10%; apparent Kd; triplicate
row,Binder,Kd [nM]
1,RSNYVLKG [peptide 17.1B],3.15
2,HRDVQRT [peptide 17.1A],222
3,Tag7 protein (PGLYRP1) (natural protein) QETEDPACCSPIVPRNEWKALASECAQHLSLPLRYVVVSHTAGSSCNTPASCQQQARNVQHYHMKTLGWCDVGYNFLIGEDGLVYEGRGWNFTGAHSGHLWNPMSIGISFMGNYMDRVPTPQAIRAAQGLLACGVAQGALRSNYVLKGHRDVQRTLSPGNQLYHLIQNWPHYRSP,1.73
